Experimental data reported in patent US6509445 (NISSIN FOOD PRODUCTS, dated 2003).

B1: chimeric protein ATFHI-ML (other)
chain: MSNELHQVPSNCDCLNGGTCVSNKYFSNIHWCNCPKKFGGQHCEIDKSKTCYEGNGHFYRGKASTDTMGRPCLPWNSATVLQQTYHAHRSDALQLGLGKHNYCRNPDNRRRPWCYVQVGLKPLVQECMVHDCADGKKPSSPPEELKFQGTVAACNLPIVRGPCRAFIQLWAFDAVKGKCVLFPYGGCQGNGNKFYSEKECREYCGVPG
B2: chimeric protein ATFHI-CL (other)
chain: MSNELHQVPSNCDCLNGGTCVSNKYFSNIHWCNCPKKFGGQHCEIDKSKTCYEGNGHFYRGKASTDTMGRPCLPWNSATVLQQTYHAHRSDALQLGLGKHNYCRNPDNRRRPWCYVQVGLKPLVQECMVHDCADGTVAACNLPIVRGPCRAFIQLWAFDAVKGKCVLFPYGGCQGNGNKFYSEKECREYCGVPGDGDEELL
B3: chimeric protein ATFHI (other)
chain: MSNELHQVPSNCDCLNGGTCVSNKYFSNIHWCNCPKKFGGQHCEIDKSKTCYEGNGHFYRGKASTDTMGRPCLPWNSATVLQQTYHAHRSDALQLGLGKHNYCRNPDNRRRPWCYVQVGLKPLVQECMVHDCADGTVAACNLPIVRGPCRAFIQLWAFDAVKGKCVLFPYGGCQGNGNKFYSEKECREYCGVPG

Molecular target: urokinase receptor (uPAR) (human, UniProt Q03405 23-305)
Test: cell-based or functional assay

Sequence of urokinase receptor (uPAR) (Q03405 23-305): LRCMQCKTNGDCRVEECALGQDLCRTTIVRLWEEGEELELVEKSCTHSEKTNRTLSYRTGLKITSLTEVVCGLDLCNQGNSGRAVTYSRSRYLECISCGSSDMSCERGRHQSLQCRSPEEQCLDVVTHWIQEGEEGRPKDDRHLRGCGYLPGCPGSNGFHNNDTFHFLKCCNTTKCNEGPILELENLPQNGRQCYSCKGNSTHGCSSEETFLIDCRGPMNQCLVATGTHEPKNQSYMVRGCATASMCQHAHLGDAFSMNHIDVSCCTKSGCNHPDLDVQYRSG

Binder | Invasion inhibitory effect ID50 (nM), A375 cells [nM] | Invasion inhibitory effect ID50 (nM), DU-145 cells [nM] | Invasion inhibitory effect ID50 (nM), GE0 cells [nM] | Invasion inhibitory effect ID50 (nM), H0C-I cells [nM] | Invasion inhibitory effect ID50 (nM), MDA-MB-435 cells [nM] | Invasion inhibitory effect ID50 (nM), PC-3 cells [nM] | Invasion inhibitory effect ID50 (nM), SMT-ccl cells [nM]
B1 | 120 | 2.9 | 20 | 50 | 5.6 | 50 | 10
B2 | 100 | 5 | 200 | 20 | 20 | 20 | 1
B3 | 50 | 0.5 | 110 | 10 | 3.5 | 20 | 1.2
